± gives the uncertainty stated by the source.
Assay: amyloid nucleation score (Sup35N fusion, yeast selection) (log enrichment); library NNK2; higher = more nucleation; inactive = no reads after selection
Outline: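 Using DiMSum, nucleation scores were taken as the log enrichment of output over input reads, centred on the mode score of non-aggregating sequences. The input and output reads came from Illumina sequencing of plasmid inserts, with sequences under 100 input reads excluded. The yeast were psi-negative, expressed Sup35N fused to peptides of 20 random codons, were induced with 100 μM copper sulfate for 24 hours, and were grown 7 days at 30°C on medium lacking adenine and uracil.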

Substance | amyloid nucleation score
IHCRCVADCSRS | -0.097 ± 0.76
NRHRWLYLRMRLYRYLEGVR | 1.18 ± 0.47
WVLMYDICGS | inactive
VKRYDS | inactive
VGCPEMGLVSLGSLLRLGSA | 0.968 ± 0.39
YSNRVTLMSYDIN | inactive
SWQDSLYRAQCFLCSWSKTV | -0.575 ± 0.34
RNLDNHRTFFSFRIGLFMWS | 6.13 ± 0.077
FYKTLCKLGWAPWS | -0.744 ± 0.32
IACYMMGLRLL | -0.414 ± 0.41
FGICLVMRFLWYESSTPWED | -0.446 ± 1
PGSKPPWVSYGNPSTMAIGM | -0.472 ± 0.79
KVECEVWVRWVRCDGCAAGK | 1.22 ± 0.2
VFSSNEYFPLYSVFIVSEIL | 2.47 ± 0.074
SSMQPHLVSSVL | 3.7 ± 0.07
WSGQPGFSTYGICLLSVRLK | -0.286 ± 0.65
RRDFWPSVSLGCDFRIRFPR | 2.1 ± 0.12
RCCFAARMYYGHTLASAVIR | 1.38 ± 0.3
CLDNNKNYLDSRCGIRCY | inactive
RLKMEICDLTFPAQLFQTFG | 3.49 ± 0.079
DGRKALI | 1.87 ± 0.35
MSFYPRWFSQGMLWCKHHHA | 0.516 ± 0.81

Substance | amyloid nucleation score
VQDYKSVRYVGNSRIRVGGS | -0.392 ± 0.79
NGRETEFQFTRVDVWNFSVM | 5.065 ± 0.046
LLCSPEGVYGKCTGGFRQTL | 0.581 ± 0.39
RSSSCSNVMMVE | 0.935 ± 0.34
SQLYE | 1.23 ± 0.44
IDSSGEYIVLRGYMYMRFRL | -0.72 ± 0.4
AWHIPLTCGLHVIFLGR | inactive
LFRFYCMIANCIVLQN | 4.93 ± 0.045
TSYSTPRMGPLTPRLSSG | 0.388 ± 0.25
VVTLRCSIVKEDTNGLLPGV | 2.79 ± 0.09
AMRFLALAWWTPGFSIGELM | 4.846 ± 0.035
CCCLSKHSNECGLRMDRPFT | 0.909 ± 0.6
CFRNWACMSSQRYCMVVRGN | -1.58 ± 0.54
SWWYSKELKSRSAILATMMK | -0.151 ± 0.28
ISLSHWGQTIPLRSFLLNRL | 0.432 ± 0.53
GWFFDFFITCPVSHSTFSKL | 2.19 ± 0.14
FLFYTFRLRVFFLNCNSEDW | -1.97 ± 0.54
KATRTFY | 0.495 ± 0.34
LVLAASTFQYSGRGYASDML | 1.49 ± 0.29
IEYRNMLMLSCFNKYMDCLN | 4.45 ± 0.055
CMWWIHDPGRDRLKELKVAR | 0.452 ± 0.36
TNIYLGMIVRVHLLFLMELA | -0.891 ± 1.1

Substance | amyloid nucleation score
LCSSKETDMPFLVLQSLKSN | -0.791 ± 0.78
HDIVRIALHYQQRVVCAWSC | 0.713 ± 0.24
YDNKASDVMVNYLRHICVYS | inactive
VRPMLGGSNRLHFSMVFDDD | 5.964 ± 0.059
RMSRVEWIPHVDFYPTHGLI | -0.439 ± 0.63
HISYVNSSRL | 4.05 ± 0.078
KNGATLSCYILYSCGLMASV | -2.34 ± 0.62
SMIDGWGRVFHYAVVQISMN | 6.158 ± 0.032
SSMSNIEE | -1.15 ± 0.42
IADIVEHCCAVRVCALGGLM | 0.393 ± 0.8
DIDAIYTFRACGDMPSHFRR | -0.172 ± 0.35
GCMLSRMNTGLSRLGLFFDS | -1.25 ± 0.55
ANYMRYYSGLICFTESRYMS | 1.5 ± 0.17
MGSLSHYRAQDRLREQLWLW | 0.458 ± 0.19
PGILDNRLGKQGAGLDLRWH | 1.17 ± 0.24
SEYVLLT | inactive
QLPAHFFGLFCLFP | -1.41 ± 0.73
CRIGA | -0.252 ± 0.28
LNAYGGRCSL | 0.317 ± 0.5
RTWQCDDWSQYLLVVF | -0.1 ± 1
YTDLG | 0.563 ± 0.44
LVRDHRNRVGFCQMSQ | 0.248 ± 0.44

Substance | amyloid nucleation score
LMGGYLEYGSFVTT | 0.453 ± 0.51
SCLLWAF | -1.54 ± 1.1
LSDGN | -1.04 ± 0.76
CEFRDQRFPLVCAGYGRYIG | 0.653 ± 0.57
RFYTVSRSRLSGMSMYLCRV | -0.294 ± 0.26
GNVVMN | 0.863 ± 0.18
GMCYGGKFDY | -0.356 ± 0.33
YEGNFAHCFSLGPDHVID | -0.202 ± 1.1
SSMERCEHLQVLEAFLWSVE | 1.87 ± 0.16
VIFVVNIFHLYWLRVC | 0.748 ± 0.58
TGYHNLMGVLGMVAVKHELG | -0.09 ± 0.25
TFDLQFELFMGDRTLSLL | -0.038 ± 0.29
THLLIIDIVKYRKHIL | 0.255 ± 1.1
AQCAYTTDGFPFLCWRSGTF | 0.701 ± 0.6
ITMSQNSWNFRHDGTLVGLK | 0.377 ± 0.3
AFIYYFNLTSAHYFPMRQMF | inactive
FSQFMKLNSRFIRRYMWCVL | -0.891 ± 0.55
SYFLGFVRYAVILSGMLLST | -0.281 ± 0.56
YTMMRFGPPPFETFVVKYGL | 1.42 ± 0.35

Source: the supplement of paper PMC12042874
